# Source: IntAct's records for PubMed 18809921
# B1: CCAAT/enhancer-binding protein beta (Homo sapiens), P17676 (parent)
# chain: MQRLVAWDPACLPLPPPPPAFKSMEVANFYYEADCLAAAYGGKAAPAAPPAARPGPRPPAGELGSIGDHERAIDFSPYLEPLGAPQAPAPATATDTFEAAPPAPAPAPASSGQHHDFLSDLFSDDYGGKNCKKPAEYGYVSLGRLGAAKGALHPGCFAPLHPPPPPPPPPAELKAEPGFEPADCKRKEEAGAPGGGAGMAAGFPYALRAYLGYQAVPSGSSGSLSTSSSSSPPGTPSPADAKAPPTACYAGAAPAPSQVKSKAKKTVDKHSDEYKIRRERNNIAVRKSRDKAKMRNLETQHKVLELTAENERLQKKVEQLSRELSTLRNLFKQLPEPLLASSGHC
# Variants of: B1
# Conditions: with abc3g_human APOBEC3G
row,Variant,effect of a mutation on the interaction
1,S288A,decreasing interaction
